Data taken from paper PMC2156119.
Read-outs that look alike come from different tables or passages of the source.

Columns and labels:
[1] = target: tubulin as used by Curmi et al. 1997; assay: plasmon resonance measurement; conditions: pH 6.5; cited from earlier work
Op18-Δ5-9-F (human) [2] = assay: pull-down
Op18-Δ5-9-F (human) [3] = assay: pull-down; remark: listed apart in the source

Row | Substance | Kd [1] [nM] | Free [tubulin] at half saturation of Op18 (Op18-Δ5-9-F (human) [2]) [µM] | Kd1 (first tubulin heterodimer) (Op18-Δ5-9-F (human) [2]) [µM] | Kd2 (second tubulin heterodimer) (Op18-Δ5-9-F (human) [2]) [µM] | stoichiometry N (mol tubulin per mol) (Op18-Δ5-9-F (human) [2]) | Kd1 (first tubulin heterodimer) (Op18-Δ5-9-F (human) [3]) [µM] | Kd2 (second tubulin heterodimer) (Op18-Δ5-9-F (human) [3]) [µM]
1 | stathmin/Op18 as used by Curmi et al. 1997 | 500 |  |  |  |  |  | 
2 | tubulin heterodimer (bovine tubulin) (from UniProt Q6B856 1-445) (complex) |  | 7.1 | 74 | 0.98 | 2.1 | 6.5 | 0.91
